Values of other authors in paper PMC3491057, “Proliferating Cell Nuclear Antigen (PCNA) Interactions in Solution Studied by NMR” (PLoS ONE, 2012).

Molecular target: T1, human PCNA (Homo sapiens, UniProt P12004)
T1 construct: His6 tag with PreScission protease cleavage site (N, cleaved yes); made in house; host or cells: E. coli
Details: PIP-box fragments
Text: The CDK inhibitor p21 mediates the cellular response to DNA damage by arresting the cell cycle at the G1 phase, inhibiting the progression into the S phase and thus DNA replication. It is an intrinsically disordered protein with an N-terminal sequence similar to other CDK-inhibitory proteins (including p27^Kip1, p57^Kip2, and p27^XIC1) and a C-terminal region containing a PIP-box. […] The smallest p21 fragment still competing with p21^20 ... || We have characterized the thermodynamics of the p21^20 and p21^12 peptides binding to PCNA by Isothermal Titration Calorimetry (ITC) in the same buffer (PBS pH 7.0) and at the same temperature (35°C) as the NMR experiments described below (Figure 3 and Figure S2). To allow comparison with data in the literature for the p21^20 [34], ITC experiments were also carried out at 30°C.

T1 sequence (P12004 whole entry): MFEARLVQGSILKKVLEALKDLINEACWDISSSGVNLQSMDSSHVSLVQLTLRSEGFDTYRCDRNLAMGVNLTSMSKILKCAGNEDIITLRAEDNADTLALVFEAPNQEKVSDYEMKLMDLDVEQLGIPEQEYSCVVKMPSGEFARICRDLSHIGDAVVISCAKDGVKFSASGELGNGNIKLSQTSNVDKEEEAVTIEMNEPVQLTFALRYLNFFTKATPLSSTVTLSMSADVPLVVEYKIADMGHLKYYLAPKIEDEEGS

Row | Kd [µM] | Substance
1 | 60 | Fen-1^22: PIP-box fragment of Flap endonuclease 1 (SRQGSTQGRLDDFFKVTGSL)
2 | 1.5 | p66^22: PIP-box fragment of p66, subunit 3 of human replicative DNA polymerase-δ (POLD3) (KANRQVSITGFFQRK)
